These results are taken from US20080050370A1 (Biogen, published 2008).

The labels stand for the following.
B1: BHA10 scFv VH44:VL100 NH-Hercules bispecific antibody (bispecific antibody)
heavy: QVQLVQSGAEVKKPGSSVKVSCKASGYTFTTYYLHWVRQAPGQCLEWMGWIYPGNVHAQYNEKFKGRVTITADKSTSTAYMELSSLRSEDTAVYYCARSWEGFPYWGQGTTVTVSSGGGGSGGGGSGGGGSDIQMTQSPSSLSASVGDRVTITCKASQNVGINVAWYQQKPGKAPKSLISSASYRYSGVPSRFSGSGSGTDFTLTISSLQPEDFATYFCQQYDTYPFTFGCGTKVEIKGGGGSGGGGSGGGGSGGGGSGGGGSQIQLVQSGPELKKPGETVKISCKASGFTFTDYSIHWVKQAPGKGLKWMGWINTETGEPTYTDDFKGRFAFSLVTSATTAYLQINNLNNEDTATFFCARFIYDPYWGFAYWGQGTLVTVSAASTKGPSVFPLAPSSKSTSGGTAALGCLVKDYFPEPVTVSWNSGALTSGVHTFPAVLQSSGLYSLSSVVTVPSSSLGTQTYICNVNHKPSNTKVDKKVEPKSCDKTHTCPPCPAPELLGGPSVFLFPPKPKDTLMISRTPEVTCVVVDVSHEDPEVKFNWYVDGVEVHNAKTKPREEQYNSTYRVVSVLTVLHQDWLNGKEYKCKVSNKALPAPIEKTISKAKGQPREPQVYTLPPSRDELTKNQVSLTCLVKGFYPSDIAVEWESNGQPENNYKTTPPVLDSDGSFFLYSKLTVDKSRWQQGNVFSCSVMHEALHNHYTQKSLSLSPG
light: QLVLTQSSSVSFSLGASAKLTCTLSSQHSTYTIEWYQQQPLKPPKYVMELKKDGSHSTGDGIPDRFSGSSSGADRYLSISNIQPEDEAIYICGVGDTIKEQFVYVFGGGTKVEIKRTVAAPSVFIFPPSDEQLKSGTASVVCLLNNFYPREAKVQWKVDNALQSGNSQESVTEQDSKDSTYSLSSTLTLSKADYEKHKVYACEVTHQGLSSPVTKSFNRGEC
notes: BHA10 scFv (anti-LTβR) joined by a (Gly4Ser)5 linker to the N-terminus of the chimeric 14A2 IgG1 (anti-TRAIL R2) heavy chain; also called N-Hercules with VH44:VL100 BHA10 scFv; N-"Hercules" Cys
B2: BHA10 scFv VH44:VL100/(Gly4Ser)4 C-Hercules bispecific antibody (bispecific antibody, human IgG1, kappa)
heavy: not shown
light: B1 light
notes: scFv at the C-terminus of the chimeric 14A2 IgG1 heavy chain; For signal peptides see m17; also called XWU036; pXWU036
B3: BHA10 scFv VH44:VL100/(Gly4Ser)4 NH-Hercules bispecific antibody (bispecific antibody, human IgG1, kappa)
heavy: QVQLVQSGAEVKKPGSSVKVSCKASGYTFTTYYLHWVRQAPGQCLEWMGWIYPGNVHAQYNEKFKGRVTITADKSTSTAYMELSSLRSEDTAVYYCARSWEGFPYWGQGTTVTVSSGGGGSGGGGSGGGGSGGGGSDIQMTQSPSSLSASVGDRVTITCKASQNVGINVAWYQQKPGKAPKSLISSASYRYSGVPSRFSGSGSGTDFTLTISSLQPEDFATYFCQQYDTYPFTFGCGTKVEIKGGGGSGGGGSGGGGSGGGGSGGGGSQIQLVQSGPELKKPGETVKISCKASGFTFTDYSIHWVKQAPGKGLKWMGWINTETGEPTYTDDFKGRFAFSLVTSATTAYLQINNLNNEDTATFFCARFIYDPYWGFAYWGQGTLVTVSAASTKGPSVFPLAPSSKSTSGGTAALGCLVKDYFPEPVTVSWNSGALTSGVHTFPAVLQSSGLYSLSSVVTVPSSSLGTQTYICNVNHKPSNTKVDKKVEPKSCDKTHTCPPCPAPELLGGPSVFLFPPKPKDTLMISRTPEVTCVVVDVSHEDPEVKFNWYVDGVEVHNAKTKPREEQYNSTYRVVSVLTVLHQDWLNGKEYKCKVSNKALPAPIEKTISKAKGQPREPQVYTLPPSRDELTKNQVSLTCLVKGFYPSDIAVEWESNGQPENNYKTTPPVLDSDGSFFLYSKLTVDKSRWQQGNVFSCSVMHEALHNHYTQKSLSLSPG
light: B1 light
notes: scFv at the N-terminus of the chimeric 14A2 IgG1 heavy chain; For signal peptides see m17; also called XWU028; pXWU028
B4: BHA10 scFv VH44:VL100 C-Hercules bispecific antibody (bispecific antibody, human IgG1, kappa)
heavy: not shown
light: B1 light
notes: BHA10 scFv joined by a Ser(Gly4Ser)3 linker to the C-terminus of the chimeric 14A2 IgG1 heavy chain; For signal peptides see m17; also called C-Hercules with VH44:VL100 BHA10 scFv; C-"Hercules" Cys
B5: BHA10 Fab (Fab, V domains shown)
VH: QVQLVQSGAEVKKPGSSVKVSCKASGYTFTTYYLHWVRQAPGQGLEWMGWIYPGNVHAQYNEKFKGRVTITADKSTSTAYMELSSLRSEDTAVYYCARSWEGFPYWGQGTTVTVSS
VL: DIQMTQSPSSLSASVGDRVTITCKASQNVGINVAWYQQKPGKAPKSLISSASYRYSGVPSRFSGSGSGTDFTLTISSLQPEDFATYFCQQYDTYPFTFGQGTKVEIK
notes: Made by enzymatic cleavage of BHA10 IgG1; also called BHA10 Fab (CHO)
B6: BHA10 (Gly4Ser)4 scFv (scFv)
scFv: QVQLVQSGAEVKKPGSSVKVSCKASGYTFTTYYLHWVRQAPGQGLEWMGWIYPGNVHAQYNEKFKGRVTITADKSTSTAYMELSSLRSEDTAVYYCARSWEGFPYWGQGTTVTVSSGGGGSGGGGSGGGGSGGGGSDIQMTQSPSSLSASVGDRVTITCKASQNVGINVAWYQQKPGKAPKSLISSASYRYSGVPSRFSGSGSGTDFTLTISSLQPEDFATYFCQQYDTYPFTFGQGTKVEIK
notes: His-tagged (captured through anti-PENTA-His); also called Wild-type, (G4S)*4 linker; GS4
B7: BHA10 VH44:VL100/(Gly4Ser)4 scFv (scFv)
scFv: B6 scFv with G44C, Q236C
notes: Cys at Kabat VH44 and VL100 form a disulfide; also called Wild-type, (G4S)*4 linker w/ VH44/VL100 disulfide; 009 (ss)
B8: BHA10 scFv VH44/VL100 disulfide, VH-S16Q, VL-S46L, (G4S)4 linker (scFv, name in Kabat numbering)
scFv: B6 scFv with S16Q, G44C, S182L, Q236C
notes: It is read here as the disulfide version; also called pIEH081
B9: conventional BHA10 scFv, VH-(Gly4Ser)3-VL (scFv)
scFv: QVQLVQSGAEVKKPGSSVKVSCKASGYTFTTYYLHWVRQAPGQGLEWMGWIYPGNVHAQYNEKFKGRVTITADKSTSTAYMELSSLRSEDTAVYYCARSWEGFPYWGQGTTVTVSSGGGGSGGGGSGGGGSDIQMTQSPSSLSASVGDRVTITCKASQNVGINVAWYQQKPGKAPKSLISSASYRYSGVPSRFSGSGSGTDFTLTISSLQPEDFATYFCQQYDTYPFTFGQGTKVEIK
notes: also called Wild-type, (G4S)*3 linker; WT
B10: BHA10 VH44/VL100 scFv (scFv)
scFv, VH-(Gly4Ser)3-VL: B9 scFv with G44C, Q231C
modifications: disulfide bond between VH44 Cys and VL100 Cys (Kabat)
notes: Expressed in E. coli; also called IEH006 (GS3 + SS); pIEH006
B11: BHA10 scFv VL-S46L, (G4S)4 linker (scFv)
scFv: QVQLVQSGAEVKKPGSSVKVSCKASGYTFTTYYLHWVRQAPGQGLEWMGWIYPGNVHAQYNEKFKGRVTITADKSTSTAYMELSSLRSEDTAVYYCARSWEGFPYWGQGTTVTVSSGGGGSGGGGSGGGGSGGGGSDIQMTQSPSSLSASVGDRVTITCKASQNVGINVAWYQQKPGKAPKLLISSASYRYSGVPSRFSGSGSGTDFTLTISSLQPEDFATYFCQQYDTYPFTFGQGTKVEIKDDDDKSFLEQKLISEEDLNSAVDHHHHHH
notes: also called 072 VL-S46L; pIEH029
B12: IEH031 (GS4 + SS + VL S46L) (scFv)
scFv: B11 scFv with G44C, Q236C
modifications: chain 1: engineered disulfide bond between Cys at pos 44 (VH Kabat 44) and Cys at pos 236 (VL Kabat 100)
notes: also called pIEH031; BHA10 scFv VH44-VL100 disulfide, (Gly4Ser)4 linker, VL S46L
B13: BHA10 scFv VH44/VL100 disulfide, VH-S16E, VL-S46L, (G4S)4 linker (scFv, name in Kabat numbering)
scFv: B6 scFv with S16E, G44C, S182L, Q236C
notes: It is read here as the disulfide version; also called 080 VL-S46L + VH-S16E + ss
B14: BHA10 scFv VH-V55G, (G4S)4 linker (scFv)
scFv: B11 scFv with V56G, L182S
notes: also called 079 VH-V55G; pIEH070
B15: BHA10 scFv VH-S16E, VH-V55G, VL-S46L, (G4S)4 linker (scFv, name in Kabat numbering)
scFv: B6 scFv with S16E, V56G, S182L
notes: Positions are Kabat numbers of the VH and VL domains; also called 087 VL-S46L + VH-S16E, V55G; pIEH087
B16: BHA10 scFv VH-S16E, (G4S)4 linker (scFv, name in Kabat numbering)
scFv: B6 scFv with S16E
notes: Positions are Kabat numbers of the VH domain; also called 074 VH-S16E; pIEH032
B17: BHA10 scFv VH-S16E, VL-S46L, (G4S)4 linker, no disulfide (scFv, name in Kabat numbering)
scFv: B6 scFv with S16E, S182L
notes: Positions are Kabat numbers of the VH and VL domains, not of the scFv entry; also called 076 VL-S46L + VH-S16E; pIEH076
B18: BHA10 scFv VH-P101D, (G4S)4 linker (scFv, name in Kabat numbering)
scFv: B6 scFv with P104D
notes: Built on the (G4S)4 scFv; The position is a Kabat number of VH; also called 077 VH-P101D; pIEH058
B19: BHA10 scFv VH-S16Q, VL-S46L, (G4S)4 linker, no disulfide (scFv, name in Kabat numbering)
scFv: B6 scFv with S16Q, S182L
notes: Positions are Kabat numbers of the VH and VL domains; also called 078 VL-S46L + VH-S16Q; pIEH078

Substitutions are numbered along the chain they refer to. In names and notes the source's numbering stands.

For one test, the target named is T1, LTβR-Ig (UniProt P36941 31-227, limits assumed).
T1 construct: extracellular domain; also called LTβR Ig receptor; recombinantly produced LTβR receptor; not shown: human Fc region
T1 sequence (P36941 31-227 limits assumed): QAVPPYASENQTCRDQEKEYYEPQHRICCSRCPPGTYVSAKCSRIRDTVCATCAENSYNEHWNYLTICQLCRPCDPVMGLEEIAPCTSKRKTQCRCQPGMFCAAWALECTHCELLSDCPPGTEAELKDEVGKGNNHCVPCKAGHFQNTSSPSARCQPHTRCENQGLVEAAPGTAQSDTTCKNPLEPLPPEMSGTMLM
In words: bispecific sandwich ELISA: LTβR-Ig coated on the plate, purified antibody titrated, then TRAIL-R2 Fc 6X-His, detection with anti-His HRP conjugate; signal needs binding to both receptors.
Turning to B1, the EC50 turned out to be 0.041 µg/mL. Turning to B2, the EC50 was determined as 0.086 µg/mL. Against the preceding molecule, the EC50 is about 2.1-fold higher. On the same count and under the same terms, then B3, with 0.055 µg/mL; and B4, with 0.087 µg/mL.

In the next test the target is T2, sLTβR (UniProt P36941 31-227, limits assumed).
T2 construct: Used in solution in ITC and as the analyte in SPR; also called soluble lymphotoxin beta receptor; antigen
T2 sequence (P36941 31-227 limits assumed): as above
In words: isothermal titration calorimetry at 30 °C, Fab titrated into sLTβR in PBS.
Experimental: The Fab and sLTβR were concentrated to 6.0 and 2.0 mg/mL, respectively, using Amicon ultracentrifugal filter devices (MWCO 10,000). The concentrated stock solutions were simultaneously dialyzed against PBS prior to the ITC measurements. ITC was performed on a VP-ITC unit (MicroCal LLC, Northampton, Mass.) set to 30° C. Approximately 500 μL of a 7 μM sLTβR solution was placed into the sample cell and PBS dialysate was placed in the reference cell. […] ITC curves were analysed using the Origin Software supplied by the manufacturer.
Molecule B5 returned a Kd of 1.9 nM.

The target in the next test is T2, sLTβR. In words: SPR (Biacore 3000), scFv captured on anti-PENTA-His, sLTβR as analyte, 1:1 Langmuir fit.
Experimental: (§1) All experiments were performed in HBS-EP buffer, pH 7.4. […] 0.1 μM solutions of test scFvs were injected over the chip at a flow rate of 5 μl/min for 10 minutes and captured onto the surface via the immobilized PENTA-His antibody. To investigate binding between sLTβR and captured scFv, a concentration series of sLTβR (1, 2, 5, 10, 25, 50, 100, and 200 nM) was double injected at a flow rate of 30 μl/min onto the scFv-coated surface. Background was subtracted from test sample sensorgrams using sensorgram data from a flow cell containing buffer only and sensorgram data from the PENTA-His surface where scFv was injected followed by an injection of buffer instead of sLTβR. The curves were analyzed using the BiaEval 3.0 manufacturer's software. KD values were calculated by fitting kinetic association and dissociation curves to a 1:1 Langmuir binding model. Chip surfaces were regenerated by two consecutive 10 μL injections of 0.1 M glycine, pH 3.0.
On to B6, for which the Kd is 2.5 nM. Still for that read-out and setting: then B7, with 4.3 nM.

The next test has as its target T2, sLTβR. In words: SPR (Biacore 3000); with VH44/VL100 disulfide (second 'VH-S16Q, VL-S46L' row, below the disulfide wild-type).
B8 yielded a Kd of 3.3 nM. In other words, the single-digit nanomolar range.

In another test the target is T2, sLTβR. In words: SPR (Biacore 3000), scFv captured on anti-PENTA-His, sLTβR 1-200 nM as analyte, 1:1 Langmuir fit.
Experimental: as §1
B9 returned a Kd of 3.7 nM.

The next test deals with T1, LTβR-Ig. In words: thermal challenge assay, remaining binding to plate-coated LTβR-Ig read by DELFIA; unit taken from the x axis.
Take B10: the “midpoint temperature of the thermal challenge curve (T50)” value (from here on “midpoint temperature”) is 61.5 °C. As to B11, the “midpoint temperature” value stood at 60.3 °C. As to B12, the “midpoint temperature” value stood at 72.3 °C. On to B7, for which the “midpoint temperature” value turned out to be 63.3 °C.

A further test addresses T2, sLTβR. In words: SPR (Biacore 3000); with VH44/VL100 disulfide (second 'VH-S16E, VL-S46L' row, below the disulfide wild-type).
Turning to B13, the affinity, expressed as Kd, was 4 nM.

A further test concerns the target T1, LTβR-Ig. In words: thermal challenge assay; T50 = temperature at which 50% of the molecules keep binding to plate-coated LTβR-Ig (DELFIA); unit taken from the x axis.
Experimental: An aliquot of the supernatant was reserved for the reference DELFIA. […] For screens requiring multiple challenge temperatures (or for temperatures greater than 75° C.) the supernatants were transferred to 96-well PCR plates (Applied Biosystems, Foster City, Calif., Cat. # N801-560) and incubated for 90 minutes at the desired temperature.
After thermal challenge, the samples were centrifuged at 2,000 RPM to remove aggregated material. Soluble BHA10 scFv samples remaining in the treated, cleared supernatant were assayed for binding to cognate LTβR Ig antigen by DELFIA assay. […] Plates were coated overnight at 4° C., and blocked with DELFIA assay buffer (DAB, 10 mM Tris HCl, 150 mM NaCl, 20 μM EDTA, 0.5% BSA, 0.02% Tween 20, 0.01% NaN₃, pH 7.4) for one hour with shaking at room temperature. Plates were washed 3 times with DAB without BSA (Wash buffer), and test samples diluted in DAB were added to the plates in a final volume of 100 μl. The plates were incubated for one hour with shaking at room temperature, and then washed 3 times with Wash buffer to remove unbound and functionally inactivated scFv molecules. Bound BHA10 scFv was detected by addition of 100 μl per well of DAB containing 40 ng/ml of Eu-labeled anti-His₆ antibody (Perkin Elmer, Boston, Mass., Cat. # AD0109) and incubated at room temperature with shaking for one hour.
Turning to B9, the T50 is 49 °C. The molecule B10 displayed a T50 of 59 °C. The same measure, in the same setting: then B5, with 62 °C; and B6, with 53 °C.

As to B7, the T50 came out at 62 °C.

In another test the target is T2, sLTβR. In words: SPR (Biacore 3000).
B9: the dissociation constant Kd was 2.7 nM.

As for B11, the Kd is 4 nM. On to B14, for which the Kd worked out at 2.2 nM. As for B6, the Kd came to 2.1 nM. B15 displayed a Kd of 3.8 nM.

In turn, B16 registered a Kd of 2 nM. Molecule B17 registered a dissociation constant Kd of 3.4 nM. Compared with the last molecule, the Kd is about 1.7-fold higher.

Molecule B18 showed a Kd of 5.2 nM. Turning to B7, the Kd was 3.3 nM. Consider B19, for which the affinity, expressed as Kd, was 4.2 nM. The Kd values of the last two molecules are within 1.5-fold of each other.
